Results on eleven variants are retold here after IntAct's records for PubMed 29426014.

B1: Ubiquitin-protein ligase (Homo sapiens), Q05086-2 (parent)
chain: MKRAAAKHLIERYYHQLTEGCGNEACTNEFCASCPTFLRMDNNAAAIKALELYKINAKLCDPHPSKKGASSAYLENSKGAPNNSCSEIKMNKKGARIDFKDVTYLTEEKVYEILELCREREDYSPLIRVIGRVFSSAEALVQSFRKVKQHTKEELKSLQAKDEDKDEDEKEKAACSAAAMEEDSEASSSRIGDSSQGDNNLQKLGPDDVSVDIDAIRRVYTRLLSNEKIETAFLNALVYLSPNVECDLTYHNVYSRDPNYLNLFIIVMENRNLHSPEYLEMALPLFCKAMSKLPLAAQGKLIRLWSKYNADQIRRMMETFQQLITYKVISNEFNSRNLVNDDDAIVAASKCLKMVYYANVVGGEVDTNHNEEDDEEPIPESSELTLQELLGEERRNKKGPRVDPLETELGVKTLDCRKPLIPFEEFINEPLNEVLEMDKDYTFFKVETENKFSFMTCPFILNAVTKNLGLYYDNRIRMYSERRITVLYSLVQGQQLNPYLRLKVRRDHIIDDALVRLEMIAMENPADLKKQLYVEFEGEQGVDEGGVSKEFFQLVVEEIFNPDIGMFTYDESTKLFWFNPSSFETEGQFTLIGIVLGLAIYNNCILDVHFPMVVYRKLMGKKGTFRDLGDSHPVLYQSLKDLLEYEGNVEDDMMITFQISQTDLFGNPMMYDLKENGDKIPITNENRKEFVNLYSDYILNKSVEKQFKAFRRGFHMVTNESPLKYLFRPEEIELLICGSRNLDFQALEETTEYDGGYTRDSVLIREFWEIVHSFTDEQKRLFLQFTTGTDRAPVGGLGKLKMIIAKNGPDTERLPTSHTCFNVLLLPEYSSKEKLKERLLKAITYAKGFGML
partner: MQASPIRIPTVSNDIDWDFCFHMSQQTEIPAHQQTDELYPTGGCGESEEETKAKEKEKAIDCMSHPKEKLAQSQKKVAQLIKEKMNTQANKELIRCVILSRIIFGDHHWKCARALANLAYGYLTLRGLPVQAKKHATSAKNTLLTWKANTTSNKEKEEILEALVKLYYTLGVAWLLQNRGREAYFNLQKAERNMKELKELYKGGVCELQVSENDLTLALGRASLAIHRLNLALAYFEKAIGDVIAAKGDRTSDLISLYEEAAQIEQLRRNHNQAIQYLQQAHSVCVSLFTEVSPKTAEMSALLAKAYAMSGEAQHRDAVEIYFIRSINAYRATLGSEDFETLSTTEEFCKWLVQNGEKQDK
B2: Ubiquitin-protein ligase (Homo sapiens), Q05086-1 (parent)
chain: MEKLHQCYWKSGEPQSDDIEASRMKRAAAKHLIERYYHQLTEGCGNEACTNEFCASCPTFLRMDNNAAAIKALELYKINAKLCDPHPSKKGASSAYLENSKGAPNNSCSEIKMNKKGARIDFKDVTYLTEEKVYEILELCREREDYSPLIRVIGRVFSSAEALVQSFRKVKQHTKEELKSLQAKDEDKDEDEKEKAACSAAAMEEDSEASSSRIGDSSQGDNNLQKLGPDDVSVDIDAIRRVYTRLLSNEKIETAFLNALVYLSPNVECDLTYHNVYSRDPNYLNLFIIVMENRNLHSPEYLEMALPLFCKAMSKLPLAAQGKLIRLWSKYNADQIRRMMETFQQLITYKVISNEFNSRNLVNDDDAIVAASKCLKMVYYANVVGGEVDTNHNEEDDEEPIPESSELTLQELLGEERRNKKGPRVDPLETELGVKTLDCRKPLIPFEEFINEPLNEVLEMDKDYTFFKVETENKFSFMTCPFILNAVTKNLGLYYDNRIRMYSERRITVLYSLVQGQQLNPYLRLKVRRDHIIDDALVRLEMIAMENPADLKKQLYVEFEGEQGVDEGGVSKEFFQLVVEEIFNPDIGMFTYDESTKLFWFNPSSFETEGQFTLIGIVLGLAIYNNCILDVHFPMVVYRKLMGKKGTFRDLGDSHPVLYQSLKDLLEYEGNVEDDMMITFQISQTDLFGNPMMYDLKENGDKIPITNENRKEFVNLYSDYILNKSVEKQFKAFRRGFHMVTNESPLKYLFRPEEIELLICGSRNLDFQALEETTEYDGGYTRDSVLIREFWEIVHSFTDEQKRLFLQFTTGTDRAPVGGLGKLKMIIAKNGPDTERLPTSHTCFNVLLLPEYSSKEKLKERLLKAITYAKGFGML
partner: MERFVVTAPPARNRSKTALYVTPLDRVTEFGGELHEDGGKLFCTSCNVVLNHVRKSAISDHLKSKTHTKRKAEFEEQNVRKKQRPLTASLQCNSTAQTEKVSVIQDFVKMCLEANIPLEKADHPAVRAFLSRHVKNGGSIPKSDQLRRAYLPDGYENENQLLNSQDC
B3: Ubiquitin-protein ligase (Homo sapiens), Q05086-3 (parent)
chain: MATACKRSGEPQSDDIEASRMKRAAAKHLIERYYHQLTEGCGNEACTNEFCASCPTFLRMDNNAAAIKALELYKINAKLCDPHPSKKGASSAYLENSKGAPNNSCSEIKMNKKGARIDFKDVTYLTEEKVYEILELCREREDYSPLIRVIGRVFSSAEALVQSFRKVKQHTKEELKSLQAKDEDKDEDEKEKAACSAAAMEEDSEASSSRIGDSSQGDNNLQKLGPDDVSVDIDAIRRVYTRLLSNEKIETAFLNALVYLSPNVECDLTYHNVYSRDPNYLNLFIIVMENRNLHSPEYLEMALPLFCKAMSKLPLAAQGKLIRLWSKYNADQIRRMMETFQQLITYKVISNEFNSRNLVNDDDAIVAASKCLKMVYYANVVGGEVDTNHNEEDDEEPIPESSELTLQELLGEERRNKKGPRVDPLETELGVKTLDCRKPLIPFEEFINEPLNEVLEMDKDYTFFKVETENKFSFMTCPFILNAVTKNLGLYYDNRIRMYSERRITVLYSLVQGQQLNPYLRLKVRRDHIIDDALVRLEMIAMENPADLKKQLYVEFEGEQGVDEGGVSKEFFQLVVEEIFNPDIGMFTYDESTKLFWFNPSSFETEGQFTLIGIVLGLAIYNNCILDVHFPMVVYRKLMGKKGTFRDLGDSHPVLYQSLKDLLEYEGNVEDDMMITFQISQTDLFGNPMMYDLKENGDKIPITNENRKEFVNLYSDYILNKSVEKQFKAFRRGFHMVTNESPLKYLFRPEEIELLICGSRNLDFQALEETTEYDGGYTRDSVLIREFWEIVHSFTDEQKRLFLQFTTGTDRAPVGGLGKLKMIIAKNGPDTERLPTSHTCFNVLLLPEYSSKEKLKERLLKAITYAKGFGML
partner: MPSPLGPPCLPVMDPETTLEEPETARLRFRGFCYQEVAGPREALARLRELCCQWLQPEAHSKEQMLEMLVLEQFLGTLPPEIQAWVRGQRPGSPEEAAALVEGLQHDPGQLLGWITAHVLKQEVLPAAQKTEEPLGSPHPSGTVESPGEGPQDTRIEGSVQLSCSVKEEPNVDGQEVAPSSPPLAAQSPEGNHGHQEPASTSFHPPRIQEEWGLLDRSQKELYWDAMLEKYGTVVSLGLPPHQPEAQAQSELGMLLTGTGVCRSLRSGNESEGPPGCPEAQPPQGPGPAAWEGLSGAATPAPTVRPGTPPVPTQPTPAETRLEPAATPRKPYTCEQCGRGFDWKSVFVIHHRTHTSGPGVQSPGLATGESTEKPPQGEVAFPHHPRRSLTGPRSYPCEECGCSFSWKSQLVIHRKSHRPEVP
B4: Ubiquitin-protein ligase (Homo sapiens), Q05086-1 (parent)
chain: B2 chain
partner: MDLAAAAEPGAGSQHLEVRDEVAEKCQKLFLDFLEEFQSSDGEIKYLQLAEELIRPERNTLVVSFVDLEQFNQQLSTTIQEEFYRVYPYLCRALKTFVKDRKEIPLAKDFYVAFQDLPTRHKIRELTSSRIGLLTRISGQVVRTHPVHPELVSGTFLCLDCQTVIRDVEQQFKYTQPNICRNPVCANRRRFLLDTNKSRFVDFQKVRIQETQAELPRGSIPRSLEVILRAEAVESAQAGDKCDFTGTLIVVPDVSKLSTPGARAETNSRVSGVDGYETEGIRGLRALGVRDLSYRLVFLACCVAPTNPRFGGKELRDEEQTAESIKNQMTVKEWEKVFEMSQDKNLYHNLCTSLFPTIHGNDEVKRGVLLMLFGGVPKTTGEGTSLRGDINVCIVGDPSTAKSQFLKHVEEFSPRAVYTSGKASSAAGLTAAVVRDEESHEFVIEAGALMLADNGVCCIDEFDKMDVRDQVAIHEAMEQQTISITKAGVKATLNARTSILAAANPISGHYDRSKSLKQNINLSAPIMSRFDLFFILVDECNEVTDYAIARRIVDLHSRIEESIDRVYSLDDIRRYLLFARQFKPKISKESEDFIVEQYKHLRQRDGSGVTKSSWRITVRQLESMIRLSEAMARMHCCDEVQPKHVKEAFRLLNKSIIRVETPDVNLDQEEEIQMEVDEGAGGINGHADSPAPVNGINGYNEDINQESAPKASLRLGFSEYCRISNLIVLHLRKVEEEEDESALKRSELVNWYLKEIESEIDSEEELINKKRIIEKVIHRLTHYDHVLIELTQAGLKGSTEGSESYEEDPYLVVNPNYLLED
B5: Ubiquitin-protein ligase (Homo sapiens), Q05086-2 (parent)
chain: B1 chain
partner: B3 partner
B6: Ubiquitin-protein ligase (Homo sapiens), Q05086-1 (parent)
chain: B2 chain
partner: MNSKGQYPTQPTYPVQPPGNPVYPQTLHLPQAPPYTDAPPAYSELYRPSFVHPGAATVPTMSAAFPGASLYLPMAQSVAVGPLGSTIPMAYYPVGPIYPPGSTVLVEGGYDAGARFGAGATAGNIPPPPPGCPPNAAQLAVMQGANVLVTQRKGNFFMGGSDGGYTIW
B7: Ubiquitin-protein ligase (Homo sapiens), Q05086-3 (parent)
chain: B3 chain
B8: Ubiquitin-protein ligase (Homo sapiens), Q05086-2 (parent)
chain: B1 chain
partner: B6 partner
B9: Ubiquitin-protein ligase (Homo sapiens), Q05086-2 (parent)
chain: B1 chain
partner: B2 partner
B10: Ubiquitin-protein ligase (Homo sapiens), Q05086-3 (parent)
chain: B3 chain
partner: B1 partner
B11: Ubiquitin-protein ligase (Homo sapiens), Q05086-3 (parent)
chain: B3 chain
partner: B6 partner

In the first experiment the parent is B1. The following applies: with TTC23L.
For the variant C820A, the “effect of a mutation on the interaction” value is “causing an interaction”.

The variants in the next experiment derive from B2. The following applies: with cgbp1_human CGGBP1, Q9UFW8.
Turning to C843A, the “effect of a mutation on the interaction” value is recorded as “causing an interaction”.

The variants in a further experiment derive from B3. The following applies: with ZNF446, Q9NWS9-2.
C840A: the “effect of a mutation on the interaction” value was “causing an interaction”.

Variants of B4 are the subject of the next experiment. The following applies: with mcm6_human MCM6, Q14566.
In the case of C843A, the “effect of a mutation on the interaction” value is recorded as “with no effect”.

The next experiment covers variants of B5. To be noted: with ZNF446, Q9NWS9-2.
For the variant C820A, the “effect of a mutation on the interaction” value is on record as “causing an interaction”.

The variants in the next experiment derive from B6. The following applies: with DAZAP2, Q15038-1.
With C843A, the “effect of a mutation on the interaction” value is given as “causing an interaction”.

A further experiment covers variants of B7. The following applies: with ZNF250, P15622-3.
Sequence of ZNF250, P15622-3 (P15622 other isoform, or with tags, fused parts or gaps): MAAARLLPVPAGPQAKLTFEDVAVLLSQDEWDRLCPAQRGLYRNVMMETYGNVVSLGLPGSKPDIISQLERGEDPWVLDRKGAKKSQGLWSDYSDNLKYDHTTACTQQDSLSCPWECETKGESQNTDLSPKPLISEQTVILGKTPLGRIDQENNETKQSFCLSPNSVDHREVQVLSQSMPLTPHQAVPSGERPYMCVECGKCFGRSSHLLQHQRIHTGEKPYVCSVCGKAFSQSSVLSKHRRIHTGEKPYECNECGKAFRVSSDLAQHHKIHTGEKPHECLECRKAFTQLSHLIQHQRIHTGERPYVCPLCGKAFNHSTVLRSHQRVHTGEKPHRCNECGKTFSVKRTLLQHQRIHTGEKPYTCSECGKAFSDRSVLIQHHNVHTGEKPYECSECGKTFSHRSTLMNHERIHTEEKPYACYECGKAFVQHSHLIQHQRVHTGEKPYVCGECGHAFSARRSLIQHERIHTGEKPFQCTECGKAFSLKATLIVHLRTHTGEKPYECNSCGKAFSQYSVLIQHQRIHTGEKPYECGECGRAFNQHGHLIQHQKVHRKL
Take C840A: the “effect of a mutation on the interaction” value is “causing an interaction”.

In a further experiment the parent is B7. The following applies: with PAX6, P26367-1.
Sequence of PAX6, P26367-1 (P26367 whole entry): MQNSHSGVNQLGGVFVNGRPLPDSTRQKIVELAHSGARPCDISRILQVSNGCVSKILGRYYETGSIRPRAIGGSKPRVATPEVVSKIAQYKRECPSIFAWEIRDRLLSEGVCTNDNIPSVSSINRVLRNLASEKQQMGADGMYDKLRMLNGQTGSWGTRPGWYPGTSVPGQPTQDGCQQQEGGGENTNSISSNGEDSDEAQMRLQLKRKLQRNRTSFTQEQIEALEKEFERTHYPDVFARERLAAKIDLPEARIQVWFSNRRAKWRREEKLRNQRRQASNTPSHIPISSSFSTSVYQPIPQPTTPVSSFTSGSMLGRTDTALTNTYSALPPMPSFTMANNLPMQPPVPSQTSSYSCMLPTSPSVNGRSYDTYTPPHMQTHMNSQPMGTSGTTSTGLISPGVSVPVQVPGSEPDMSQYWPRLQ
For C840A, the “effect of a mutation on the interaction” value is listed as “causing an interaction”.

Variants of B7 are the subject of the next experiment. To be noted: with magac_human MAGEA12, P43365.
Sequence of magac_human MAGEA12, P43365 (P43365 whole entry): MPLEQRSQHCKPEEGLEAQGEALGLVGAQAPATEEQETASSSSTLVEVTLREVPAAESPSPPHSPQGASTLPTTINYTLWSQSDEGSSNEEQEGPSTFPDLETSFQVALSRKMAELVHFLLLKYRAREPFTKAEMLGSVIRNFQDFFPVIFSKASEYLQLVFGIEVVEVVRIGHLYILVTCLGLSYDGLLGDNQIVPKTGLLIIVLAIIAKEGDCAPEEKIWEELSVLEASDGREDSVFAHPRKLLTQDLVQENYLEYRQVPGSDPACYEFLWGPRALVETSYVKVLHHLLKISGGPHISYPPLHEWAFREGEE
As to C840A, the “effect of a mutation on the interaction” value is given as “with no effect”.

Another experiment covers variants of B7. The following applies: with PSMD4, P55036-1.
Sequence of PSMD4, P55036-1 (P55036 whole entry): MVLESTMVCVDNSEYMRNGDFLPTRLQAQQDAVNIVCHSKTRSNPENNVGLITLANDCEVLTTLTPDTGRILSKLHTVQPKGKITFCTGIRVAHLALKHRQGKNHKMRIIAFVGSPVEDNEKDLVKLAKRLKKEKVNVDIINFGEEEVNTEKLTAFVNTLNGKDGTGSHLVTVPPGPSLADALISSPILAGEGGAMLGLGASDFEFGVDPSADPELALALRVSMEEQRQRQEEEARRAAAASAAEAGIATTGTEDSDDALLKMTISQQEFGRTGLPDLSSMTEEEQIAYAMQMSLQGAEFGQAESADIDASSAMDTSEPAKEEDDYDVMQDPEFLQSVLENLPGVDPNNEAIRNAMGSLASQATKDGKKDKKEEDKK
Turning to C840A, the “effect of a mutation on the interaction” value is on record as “with no effect”.

A further experiment covers variants of B7. To be noted: with PAX5, Q02548-1.
Sequence of PAX5, Q02548-1 (Q02548 whole entry): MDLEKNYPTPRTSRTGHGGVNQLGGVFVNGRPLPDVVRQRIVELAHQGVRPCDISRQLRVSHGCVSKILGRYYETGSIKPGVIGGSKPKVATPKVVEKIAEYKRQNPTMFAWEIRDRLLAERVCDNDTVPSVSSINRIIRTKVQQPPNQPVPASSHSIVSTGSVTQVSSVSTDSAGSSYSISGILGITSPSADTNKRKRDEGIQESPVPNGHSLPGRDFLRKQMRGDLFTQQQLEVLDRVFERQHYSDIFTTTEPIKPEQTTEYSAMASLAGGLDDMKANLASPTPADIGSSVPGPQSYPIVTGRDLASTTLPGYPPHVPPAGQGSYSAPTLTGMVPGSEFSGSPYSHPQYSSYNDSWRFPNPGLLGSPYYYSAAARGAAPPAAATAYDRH
As to C840A, the “effect of a mutation on the interaction” value is listed as “causing an interaction”.

Variants of B7 are the subject of another experiment. To be noted: with PTCD3, Q96EY7-1.
With C840A, the “effect of a mutation on the interaction” value was “with no effect”.

Variants of B7 are the subject of another experiment. To be noted: with ubql2_human UBQLN2, Q9UHD9.
Sequence of ubql2_human UBQLN2, Q9UHD9 (Q9UHD9 whole entry): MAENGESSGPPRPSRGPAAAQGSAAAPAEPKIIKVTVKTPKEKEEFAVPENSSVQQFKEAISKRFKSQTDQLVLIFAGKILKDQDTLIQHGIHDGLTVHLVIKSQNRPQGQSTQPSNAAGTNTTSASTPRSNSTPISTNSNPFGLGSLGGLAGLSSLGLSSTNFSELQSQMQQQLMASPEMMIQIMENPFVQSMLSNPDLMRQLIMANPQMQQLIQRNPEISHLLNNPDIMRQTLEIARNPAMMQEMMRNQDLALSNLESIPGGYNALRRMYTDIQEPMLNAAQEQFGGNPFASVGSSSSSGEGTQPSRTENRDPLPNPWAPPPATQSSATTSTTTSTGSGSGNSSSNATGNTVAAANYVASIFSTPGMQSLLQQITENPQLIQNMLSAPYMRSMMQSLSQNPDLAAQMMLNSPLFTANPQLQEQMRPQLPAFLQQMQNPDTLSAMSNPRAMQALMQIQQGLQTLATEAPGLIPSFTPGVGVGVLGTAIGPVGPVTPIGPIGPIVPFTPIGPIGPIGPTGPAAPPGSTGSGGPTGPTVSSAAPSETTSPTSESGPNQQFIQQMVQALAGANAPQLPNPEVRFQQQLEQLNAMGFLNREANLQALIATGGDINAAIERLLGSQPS
As to C840A, the “effect of a mutation on the interaction” value is recorded as “with no effect”.

Variants of B7 are the subject of a further experiment. The following applies: with UBQLN1, Q9UMX0-1.
Sequence of UBQLN1, Q9UMX0-1 (Q9UMX0 whole entry): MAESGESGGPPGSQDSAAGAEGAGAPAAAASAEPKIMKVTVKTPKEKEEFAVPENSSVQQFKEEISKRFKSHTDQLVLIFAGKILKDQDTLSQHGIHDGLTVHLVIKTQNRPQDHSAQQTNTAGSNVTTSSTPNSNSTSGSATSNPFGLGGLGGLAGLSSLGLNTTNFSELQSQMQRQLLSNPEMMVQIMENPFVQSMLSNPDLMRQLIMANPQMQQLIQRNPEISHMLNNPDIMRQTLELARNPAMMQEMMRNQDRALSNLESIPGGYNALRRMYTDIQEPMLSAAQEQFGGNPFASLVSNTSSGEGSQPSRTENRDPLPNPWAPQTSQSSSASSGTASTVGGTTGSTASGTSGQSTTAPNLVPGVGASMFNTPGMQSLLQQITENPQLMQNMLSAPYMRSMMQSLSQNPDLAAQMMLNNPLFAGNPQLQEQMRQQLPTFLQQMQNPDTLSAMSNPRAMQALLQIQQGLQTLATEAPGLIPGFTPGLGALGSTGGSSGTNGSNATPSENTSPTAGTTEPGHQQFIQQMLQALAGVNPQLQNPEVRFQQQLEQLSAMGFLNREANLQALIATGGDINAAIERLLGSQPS
Take C840A: the “effect of a mutation on the interaction” value is on record as “with no effect”.

The next experiment covers variants of B8. The following applies: with DAZAP2, Q15038-1.
Turning to C820A, the “effect of a mutation on the interaction” value was “causing an interaction”.

A further experiment covers variants of B9. The following applies: with cgbp1_human CGGBP1, Q9UFW8.
Regarding C820A, the “effect of a mutation on the interaction” value is “causing an interaction”.

Variants of B10 are the subject of a further experiment. The following applies: with TTC23L.
As for C840A, the “effect of a mutation on the interaction” value was “causing an interaction”.

Variants of B11 are the subject of another experiment. To be noted: with DAZAP2, Q15038-1.
For C840A, the “effect of a mutation on the interaction” value is on record as “causing an interaction”.
